# Data: paper PMC2757719
# Columns and labels:
# Assay in all cases: EMSA
# Settings in all cases: 20 mM Tris pH 7.5, 200 mM NaCl, 1 ug salmon sperm DNA, 10 fmol probe, 20 ul, room temperature 10 min; 10% polyacrylamide gel
# [1] = target: T1, EBNA1 395-641 (Epstein-Barr virus) (UniProt P03211)
# T1 sequence: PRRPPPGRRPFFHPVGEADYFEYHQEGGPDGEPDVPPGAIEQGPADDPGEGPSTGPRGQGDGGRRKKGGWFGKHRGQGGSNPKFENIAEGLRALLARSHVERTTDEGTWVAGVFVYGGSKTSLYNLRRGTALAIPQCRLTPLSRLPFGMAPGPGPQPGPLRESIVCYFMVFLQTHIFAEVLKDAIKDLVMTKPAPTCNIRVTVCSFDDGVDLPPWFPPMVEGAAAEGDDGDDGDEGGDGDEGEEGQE
# [2] = target: EBNA1 452-641;USP7 (Epstein-Barr virus;human?) (UniProt P03211+Q93009)
# [3] = target: EBNA1 395-641;USP7 (Epstein-Barr virus;human?) (UniProt P03211+Q93009)
# Sequence of EBNA1 395-641;USP7 (Epstein-Barr virus;human?) (Q93009 whole entry, one chain of several): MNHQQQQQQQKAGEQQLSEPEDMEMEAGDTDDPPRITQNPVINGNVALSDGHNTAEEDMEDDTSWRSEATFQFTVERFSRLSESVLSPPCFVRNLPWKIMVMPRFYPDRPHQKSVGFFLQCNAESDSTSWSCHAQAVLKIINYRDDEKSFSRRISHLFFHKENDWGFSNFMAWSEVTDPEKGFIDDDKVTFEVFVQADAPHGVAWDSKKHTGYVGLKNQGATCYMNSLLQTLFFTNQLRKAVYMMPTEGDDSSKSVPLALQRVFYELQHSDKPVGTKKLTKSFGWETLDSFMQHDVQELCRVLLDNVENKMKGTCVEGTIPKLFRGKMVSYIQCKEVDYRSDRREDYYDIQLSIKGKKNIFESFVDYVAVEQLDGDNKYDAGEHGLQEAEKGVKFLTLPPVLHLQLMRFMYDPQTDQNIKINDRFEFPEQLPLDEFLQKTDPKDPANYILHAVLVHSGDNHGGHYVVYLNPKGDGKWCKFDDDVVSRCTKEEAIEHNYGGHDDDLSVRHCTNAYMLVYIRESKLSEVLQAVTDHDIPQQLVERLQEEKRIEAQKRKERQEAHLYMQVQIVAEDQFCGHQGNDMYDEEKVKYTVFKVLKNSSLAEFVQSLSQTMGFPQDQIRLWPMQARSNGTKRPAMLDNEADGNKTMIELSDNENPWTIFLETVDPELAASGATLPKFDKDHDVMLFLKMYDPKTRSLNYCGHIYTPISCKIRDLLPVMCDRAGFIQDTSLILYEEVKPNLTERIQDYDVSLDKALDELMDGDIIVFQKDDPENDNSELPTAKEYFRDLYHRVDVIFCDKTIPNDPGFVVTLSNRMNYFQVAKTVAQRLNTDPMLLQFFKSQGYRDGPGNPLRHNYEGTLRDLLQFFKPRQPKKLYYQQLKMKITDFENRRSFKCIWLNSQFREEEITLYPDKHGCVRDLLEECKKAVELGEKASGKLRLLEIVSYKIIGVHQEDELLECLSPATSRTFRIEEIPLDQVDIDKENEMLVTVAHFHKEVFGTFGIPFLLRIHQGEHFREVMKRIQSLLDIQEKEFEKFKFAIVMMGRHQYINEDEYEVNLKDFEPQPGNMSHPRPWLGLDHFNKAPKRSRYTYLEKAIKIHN
# Sequence of EBNA1 452-641;USP7 (Epstein-Barr virus;human?) (Q93009 whole entry, one chain of several): as above
sequence,measurement,setting,value
CGGGAAGCATATGCTACCCG (double strand) [DS site 1 20-mer],Kd,[1],233 nM
same,binding signal (fold increase vs P3 alone),[2],4
same,Kd,[3],4 nM
